The source of these data is patent publication US20130089548.

Numbering of substitutions follows the chain as printed.

The target in data set [1] is T1, CDO-IC with Asp1178 to Asn mutation (UniProt Q32MD9).
T1 sequence: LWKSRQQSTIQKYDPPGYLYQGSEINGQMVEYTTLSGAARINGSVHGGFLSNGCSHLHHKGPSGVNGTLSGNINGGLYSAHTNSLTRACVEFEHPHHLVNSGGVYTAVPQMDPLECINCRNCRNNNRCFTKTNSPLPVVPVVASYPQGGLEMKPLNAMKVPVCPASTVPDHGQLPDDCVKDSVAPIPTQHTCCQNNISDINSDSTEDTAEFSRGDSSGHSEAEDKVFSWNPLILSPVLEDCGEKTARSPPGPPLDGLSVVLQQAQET

The target of data set [2] is T2, CDO intracellular domain wild type (CDO-IC wt), in vitro-translated (UniProt Q32MD9).
T2 sequence: T1 sequence with N195D

A further data set has as its target T3, CDO-IC-D1153N (UniProt Q32MD9).
T3 sequence: T1 sequence with D170N, N195D

The target in another data set is T4, CDO-IC-D1153N-D1164N (UniProt Q32MD9).
T4 sequence: T1 sequence with D170N, D181N, N195D

On to Recombinant purified active caspase-3, for which the “in vitro cleavage of in vitro-translated CDO-IC by purified active caspase-3 (autoradiograph, FIG. 5)” value is “the Asp^1178 to Asn mutation had no effect on CDO-IC cleavage” in data set [1]; “CDO intracellular domain (CDO-IC, amino acids 985 to 1250) was cleaved in vitro when incubated with purified active caspase-3” in data set [2]; “mutation of Asp^1153 to Asn (CDO-IC D1153N) strongly inhibited cleavage by caspase-3” in the data set with CDO-IC-D1153N; “Asp^1153/Asp^1164 to Asn double mutation almost completely suppressed caspase-3 cleavage” with CDO-IC-D1153N-D1164N.
